Results: US20230250154A1 (CYTONICS, published 2023)

T1: MMP1 (human, UniProt P03956 100-469, limits assumed)
T1 sequence (looked up): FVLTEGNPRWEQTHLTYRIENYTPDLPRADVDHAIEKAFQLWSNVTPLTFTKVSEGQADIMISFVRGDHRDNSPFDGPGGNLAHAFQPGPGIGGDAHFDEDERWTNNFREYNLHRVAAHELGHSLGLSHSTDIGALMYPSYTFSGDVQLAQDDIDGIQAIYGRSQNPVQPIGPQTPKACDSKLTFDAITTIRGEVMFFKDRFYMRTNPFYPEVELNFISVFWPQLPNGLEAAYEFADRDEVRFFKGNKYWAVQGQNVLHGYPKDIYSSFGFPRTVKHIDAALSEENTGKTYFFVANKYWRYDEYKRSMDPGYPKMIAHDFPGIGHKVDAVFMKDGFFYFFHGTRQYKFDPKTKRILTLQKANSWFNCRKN

T2: ADAMTS5 (human, UniProt Q9UNA0 262-622, limits assumed)
T2 sequence (looked up): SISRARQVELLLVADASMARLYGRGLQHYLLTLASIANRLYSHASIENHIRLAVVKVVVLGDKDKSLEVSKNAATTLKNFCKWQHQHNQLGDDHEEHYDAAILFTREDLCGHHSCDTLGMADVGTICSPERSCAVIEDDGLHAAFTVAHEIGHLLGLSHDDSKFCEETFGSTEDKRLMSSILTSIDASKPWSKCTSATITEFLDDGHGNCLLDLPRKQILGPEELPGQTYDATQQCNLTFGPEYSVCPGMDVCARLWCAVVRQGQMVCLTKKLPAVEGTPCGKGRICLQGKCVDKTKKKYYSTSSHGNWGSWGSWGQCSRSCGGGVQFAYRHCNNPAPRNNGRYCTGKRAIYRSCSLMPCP

T3: Cathepsin G (UniProt P08311 21-244)
T3 sequence (looked up): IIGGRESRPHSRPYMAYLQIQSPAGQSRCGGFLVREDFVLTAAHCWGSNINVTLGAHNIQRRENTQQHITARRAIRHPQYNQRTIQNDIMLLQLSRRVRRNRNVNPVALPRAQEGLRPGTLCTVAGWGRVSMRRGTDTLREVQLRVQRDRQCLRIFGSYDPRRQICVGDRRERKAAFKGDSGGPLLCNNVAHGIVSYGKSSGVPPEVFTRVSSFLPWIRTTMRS

T4: MMP2 (human, UniProt P08253 110-660, limits assumed)
T4 sequence (looked up): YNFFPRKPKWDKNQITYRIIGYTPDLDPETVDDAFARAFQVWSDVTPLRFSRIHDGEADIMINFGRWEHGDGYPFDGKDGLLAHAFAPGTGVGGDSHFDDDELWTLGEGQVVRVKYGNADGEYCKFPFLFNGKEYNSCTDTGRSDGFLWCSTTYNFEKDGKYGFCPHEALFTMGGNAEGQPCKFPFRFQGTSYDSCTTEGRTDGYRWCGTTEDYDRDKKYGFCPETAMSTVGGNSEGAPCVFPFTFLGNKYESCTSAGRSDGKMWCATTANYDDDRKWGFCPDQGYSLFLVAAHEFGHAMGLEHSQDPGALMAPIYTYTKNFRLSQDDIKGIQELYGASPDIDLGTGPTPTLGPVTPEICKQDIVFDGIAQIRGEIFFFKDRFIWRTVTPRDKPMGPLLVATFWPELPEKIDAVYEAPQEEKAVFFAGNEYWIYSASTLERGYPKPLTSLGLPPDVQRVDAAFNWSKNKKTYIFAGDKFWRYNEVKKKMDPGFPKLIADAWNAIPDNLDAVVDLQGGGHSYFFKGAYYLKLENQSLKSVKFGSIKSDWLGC

T5: ADAMTS4 (human, UniProt O75173 213-685, limits assumed)
T5 sequence (looked up): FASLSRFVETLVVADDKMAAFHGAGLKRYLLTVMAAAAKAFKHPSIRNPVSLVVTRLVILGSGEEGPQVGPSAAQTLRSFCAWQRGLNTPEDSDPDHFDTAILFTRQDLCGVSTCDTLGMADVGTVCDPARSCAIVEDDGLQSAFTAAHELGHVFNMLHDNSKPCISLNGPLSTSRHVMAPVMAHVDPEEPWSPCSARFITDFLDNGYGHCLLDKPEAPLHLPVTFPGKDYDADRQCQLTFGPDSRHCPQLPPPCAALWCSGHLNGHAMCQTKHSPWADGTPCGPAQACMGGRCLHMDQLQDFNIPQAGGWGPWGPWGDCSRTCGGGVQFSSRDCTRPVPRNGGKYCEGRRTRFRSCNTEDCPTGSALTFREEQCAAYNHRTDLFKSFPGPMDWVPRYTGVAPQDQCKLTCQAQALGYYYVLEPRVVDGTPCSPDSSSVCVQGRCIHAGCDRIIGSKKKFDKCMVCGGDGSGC

T6: MMP7 (UniProt P09237 95-267, limits assumed)
T6 sequence (looked up): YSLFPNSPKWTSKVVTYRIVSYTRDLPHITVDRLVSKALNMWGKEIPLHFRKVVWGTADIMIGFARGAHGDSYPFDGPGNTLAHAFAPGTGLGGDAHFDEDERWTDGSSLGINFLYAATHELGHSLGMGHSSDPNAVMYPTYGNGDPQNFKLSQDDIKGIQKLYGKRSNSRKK


Columns and labels:
Experiment in all cases: cell-based or functional assay
MMP3 = MMP3 (human, UniProt P08254 100-477, limits assumed)
MMP13 = MMP13 (human, UniProt P45452 104-471, limits assumed)
MMP1 = target: T1, MMP1
MMP9 = MMP9 (human, UniProt P14780 107-707, limits assumed)
ADAMTS5 = target: T2, ADAMTS5
Cathepsin G = target: T3, Cathepsin G
MMP2 = target: T4, MMP2
Elastase = target: Elastase
ADAMTS4 = target: T5, ADAMTS4
MMP7 = target: T6, MMP7
MMP8 = MMP8 (human, UniProt P22894 101-467, limits assumed)
MMP8, sequence (P22894 101-467 limits assumed): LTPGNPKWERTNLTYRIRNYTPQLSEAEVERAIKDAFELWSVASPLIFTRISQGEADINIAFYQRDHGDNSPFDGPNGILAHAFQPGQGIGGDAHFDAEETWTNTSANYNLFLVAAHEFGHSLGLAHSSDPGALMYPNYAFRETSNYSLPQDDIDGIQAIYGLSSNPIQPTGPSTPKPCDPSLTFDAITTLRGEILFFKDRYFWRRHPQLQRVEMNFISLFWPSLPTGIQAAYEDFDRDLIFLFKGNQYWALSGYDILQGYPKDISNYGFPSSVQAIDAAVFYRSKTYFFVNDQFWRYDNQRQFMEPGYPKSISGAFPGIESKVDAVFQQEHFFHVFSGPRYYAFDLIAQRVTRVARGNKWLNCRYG

MMP9, sequence (P14780 107-707 limits assumed): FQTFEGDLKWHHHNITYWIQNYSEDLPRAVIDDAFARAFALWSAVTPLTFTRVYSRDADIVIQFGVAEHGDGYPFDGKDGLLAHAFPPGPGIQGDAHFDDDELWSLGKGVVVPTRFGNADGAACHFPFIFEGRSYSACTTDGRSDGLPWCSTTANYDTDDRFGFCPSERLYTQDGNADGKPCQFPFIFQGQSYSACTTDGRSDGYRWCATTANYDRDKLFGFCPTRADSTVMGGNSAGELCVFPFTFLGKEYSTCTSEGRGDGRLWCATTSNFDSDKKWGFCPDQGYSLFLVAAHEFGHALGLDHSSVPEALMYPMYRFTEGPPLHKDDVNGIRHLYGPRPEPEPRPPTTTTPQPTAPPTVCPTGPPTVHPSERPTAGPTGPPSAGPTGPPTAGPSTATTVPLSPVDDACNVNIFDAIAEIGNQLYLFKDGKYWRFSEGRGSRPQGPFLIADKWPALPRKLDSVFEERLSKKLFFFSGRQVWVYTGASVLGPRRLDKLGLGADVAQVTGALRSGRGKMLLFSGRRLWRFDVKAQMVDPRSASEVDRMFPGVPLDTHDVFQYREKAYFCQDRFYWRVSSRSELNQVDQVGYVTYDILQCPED
MMP3, sequence (P08254 100-477 limits assumed): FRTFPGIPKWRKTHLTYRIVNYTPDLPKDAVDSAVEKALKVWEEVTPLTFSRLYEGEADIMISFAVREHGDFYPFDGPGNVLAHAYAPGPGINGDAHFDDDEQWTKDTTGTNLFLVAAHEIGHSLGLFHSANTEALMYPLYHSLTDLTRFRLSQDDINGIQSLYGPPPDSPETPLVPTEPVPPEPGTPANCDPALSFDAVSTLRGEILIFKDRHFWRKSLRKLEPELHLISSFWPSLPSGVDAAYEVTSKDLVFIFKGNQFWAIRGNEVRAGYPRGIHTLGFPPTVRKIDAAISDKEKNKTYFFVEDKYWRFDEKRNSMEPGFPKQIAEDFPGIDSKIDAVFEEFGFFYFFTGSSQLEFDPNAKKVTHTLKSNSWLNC

| Protease Inhibition (% of WT) (MMP3) | Protease Inhibition (% of WT) (MMP13) | Protease Inhibition (% of WT) (MMP1) | Protease Inhibition (% of WT) (MMP9) | Protease Inhibition (% of WT) (ADAMTS5) | Protease Inhibition (% of WT) (Cathepsin G) | Protease Inhibition (% of WT) (MMP2) | Protease Inhibition (% of WT) (Elastase) | Protease Inhibition (% of WT) (ADAMTS4) | Protease Inhibition (% of WT) (MMP7) | Protease Inhibition (% of WT) (MMP8) | Binder |
| --- | --- | --- | --- | --- | --- | --- | --- | --- | --- | --- | --- |
| 27 % of WT | 88 % of WT | 67 % of WT | 20 % of WT | 145 % of WT | 66 % of WT | 27 % of WT | 93 % of WT | 124 % of WT | 80 % of WT | 33 % of WT | Variant A2M, bait region SEQ ID NO 9 (other) SVSGKPQYMVLVPSLLHTETTEKGCVLLSYLNETVTVSASLESVRGNRSLFTDLEAENDVLHCVAFAVPKSSSNEEVMFLTVQVKGPTQEFKKRTTVMVKNEDSLVFVQTDKSIYKPGQTVKFRVVSMDENFHPLNELIPLVYIQDPKGNRIAQWQSFQLEGGLKQFSFPLSSEPFQGSYKVVVQKKSGGRTEHPFTVEEFVLPKFEVQVTVPKIITILEEEMNVSVCGLYTYGKPVPGHVTVSICRKYSDASDCHGEDSQAFCEKFSGQLNSHGCFYQQVKTKVFQLKRKEYEMKLHTEAQIQEEGTVVELTGRQSSEITRTITKLSFVKVDSHFRQGIPFFGQVRLVDGKGVPIPNKVIFIRGNEANYYSNATTDEHGLVQFSINTTNVMGTSLTVRVNYKDRSPCYGYQWVSEEHEEAHHTAYLVFSPSKSFVHLEPMSHELPCGHTQTVQAHYILNGGTLLGLKKLSFYYLIMAKGGIVRTGTHGLLVKQEDMKGHFSISIPVKSDIAPVARLLIYAVLPTGDVIGDSAKYDVENCLANKVDLSFSPSQSLPASHAHLRVTAAPQSVCALRAVDQSVLLMKPDAELSASSVYNLLPEKDLTGFPGPLNDQDDEDCINRHNVYINGITYTPVSSTNEKDMYSFLEDMGLKAFTNSKIRKPKMCPQLEHGPEGEGEGEGIPENFFGVPRYLSEDLVVQISELEGRGSVEEPHTKLRKYFPETWIWDLVVVNSAGVAEVGVTVPDTITEWKAGAFCLSEDAGLGISSTASLRAFQPFFVELTMPYSVIRGEAFTLKATVLNYLPKCIRVSVQLEASPAFLAVPVEKEQAPHCICANGRQTVSWAVTPKSLGNVNFTVSAEALESQELCGTEVPSVPEHGRKDTVIKPLLVEPEGLEKETTFNSLLCPSGGEVSEELSLKLPPNVVEESARASVSVLGDILGSAMQNTQNLLQMPYGCGEQNMVLFAPNIYVLDYLNETQQLTPEIKSKAIGYLNTGYQRQLNYKHYDGSYSTFGERYGRNQGNTWLTAFVLKTFAQARAYIFIDEAHITQALIWLSQRQKDNGCFRSSGSLLNNAIKGGVEDEVTLSAYITIALLEIPLTVTHPVVRNALFCLESAWKTAQEGDHGSHVYTKALLAYAFALAGNQDKRKEVLKSLNEEAVKKDNSVHWERPQKPKAPVGHFYEPQAPSAEVEMTSYVLLAYLTAQPAPTSEDLTSATNIVKWITKQQNAQGGFSSTQDTVVALHALSKYGAATFTRTGKAAQVTIQSSGTFSSKFQVDNNNRLLLQQVSLPELPGEYSMKVTGEGCVYLQTSLKYNILPEKEEFPFALGVQTLPQTCDEPKAHTSFQISLSVSYTGSRSASNMAIVDVKMVSGFIPLKPTVKMLERSNHVSRTEVSSNHVLIYLDKVSNQTLSLFFTVLQDVPVRDLKPAIVKVYDYYETDEFAIAEYNAPCSKDLGNADYKDDDDKGASHHHHHH |
| 27 % of WT | 128 % of WT | 111 % of WT | 16 % of WT | 412 % of WT | 134 % of WT | 25 % of WT | 106 % of WT | 159 % of WT | 191 % of WT | 38 % of WT | Variant A2M, bait region SEQ ID NO 10 (other) SVSGKPQYMVLVPSLLHTETTEKGCVLLSYLNETVTVSASLESVRGNRSLFTDLEAENDVLHCVAFAVPKSSSNEEVMFLTVQVKGPTQEFKKRTTVMVKNEDSLVFVQTDKSIYKPGQTVKFRVVSMDENFHPLNELIPLVYIQDPKGNRIAQWQSFQLEGGLKQFSFPLSSEPFQGSYKVVVQKKSGGRTEHPFTVEEFVLPKFEVQVTVPKIITILEEEMNVSVCGLYTYGKPVPGHVTVSICRKYSDASDCHGEDSQAFCEKFSGQLNSHGCFYQQVKTKVFQLKRKEYEMKLHTEAQIQEEGTVVELTGRQSSEITRTITKLSFVKVDSHFRQGIPFFGQVRLVDGKGVPIPNKVIFIRGNEANYYSNATTDEHGLVQFSINTTNVMGTSLTVRVNYKDRSPCYGYQWVSEEHEEAHHTAYLVFSPSKSFVHLEPMSHELPCGHTQTVQAHYILNGGTLLGLKKLSFYYLIMAKGGIVRTGTHGLLVKQEDMKGHFSISIPVKSDIAPVARLLIYAVLPTGDVIGDSAKYDVENCLANKVDLSFSPSQSLPASHAHLRVTAAPQSVCALRAVDQSVLLMKPDAELSASSVYNLLPEKDLTGFPGPLNDQDDEDCINRHNVYINGITYTPVSSTNEKDMYSFLEDMGLKAFTNSKIRKPKMCPQLEHGPEGEGLGEGIPENFYGVSEDLVVQISELEGRGSVEEPHTKLRKYFPETWIWDLVVVNSAGVAEVGVTVPDTITEWKAGAFCLSEDAGLGISSTASLRAFQPFFVELTMPYSVIRGEAFTLKATVLNYLPKCIRVSVQLEASPAFLAVPVEKEQAPHCICANGRQTVSWAVTPKSLGNVNFTVSAEALESQELCGTEVPSVPEHGRKDTVIKPLLVEPEGLEKETTFNSLLCPSGGEVSEELSLKLPPNVVEESARASVSVLGDILGSAMQNTQNLLQMPYGCGEQNMVLFAPNIYVLDYLNETQQLTPEIKSKAIGYLNTGYQRQLNYKHYDGSYSTFGERYGRNQGNTWLTAFVLKTFAQARAYIFIDEAHITQALIWLSQRQKDNGCFRSSGSLLNNAIKGGVEDEVTLSAYITIALLEIPLTVTHPVVRNALFCLESAWKTAQEGDHGSHVYTKALLAYAFALAGNQDKRKEVLKSLNEEAVKKDNSVHWERPQKPKAPVGHFYEPQAPSAEVEMTSYVLLAYLTAQPAPTSEDLTSATNIVKWITKQQNAQGGFSSTQDTVVALHALSKYGAATFTRTGKAAQVTIQSSGTFSSKFQVDNNNRLLLQQVSLPELPGEYSMKVTGEGCVYLQTSLKYNILPEKEEFPFALGVQTLPQTCDEPKAHTSFQISLSVSYTGSRSASNMAIVDVKMVSGFIPLKPTVKMLERSNHVSRTEVSSNHVLIYLDKVSNQTLSLFFTVLQDVPVRDLKPAIVKVYDYYETDEFAIAEYNAPCSKDLGNADYKDDDDKGASHHHHHH |
